# Measurements reported in patent US20030199671A1 (published 2003).
# Positions of bridges follow the written chain, without caps; N, C: chain ends.
# Assays:
# [1] = molecular target: T1, human IgG1 (human, UniProt P01857-1 1-330 = IgG part); experiment: fluorescence anisotropy; pH 5.7, 0.01 M Tris-acetate
# T1 construct: Calbiochem; human plasma IgG1 in anisotropy studies, myeloma-derived (cat. 400120) in batch/column studies; also called hIgG1
# Experimental: (§1) All measurements were performed in 384 well microplates with 20 nM fluorescein-labeled peptide and various concentrations of the IgG isoform in a volume of between 10 and 20 μl using a Tecan Polarion fluorescence polarization plate reader. All binding buffers included 0.01% (v/v) Tween 20 to prevent peptide adsorption to the microplate. The binding mixture was equilibrated for 10 minutes in the microplate at 30° C. prior to performing the measurement.
# [2] = molecular target: T2, human IgG2 (human, UniProt P01859-1 1-326 = IgG part); experiment: as above
# T2 construct: Calbiochem; plasma IgG2 in anisotropy studies, myeloma-derived (cat. 400122) in batch/column studies; also called hIgG2
# T2 sequence (P01859 other isoform, or with tags, fused parts or gaps): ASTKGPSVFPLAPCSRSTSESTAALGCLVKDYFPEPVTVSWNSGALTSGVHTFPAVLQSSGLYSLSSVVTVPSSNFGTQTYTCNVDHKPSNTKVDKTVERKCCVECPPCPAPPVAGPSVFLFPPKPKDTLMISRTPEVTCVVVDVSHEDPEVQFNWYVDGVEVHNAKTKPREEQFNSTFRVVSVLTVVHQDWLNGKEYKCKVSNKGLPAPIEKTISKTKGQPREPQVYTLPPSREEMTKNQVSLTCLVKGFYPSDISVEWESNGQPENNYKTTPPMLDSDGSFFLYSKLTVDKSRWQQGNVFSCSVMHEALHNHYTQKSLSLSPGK
# Experimental: as §1
# [3] = molecular target: T3, human IgG4 (human, UniProt P01861-1 1-327 = IgG part); experiment: as above
# T3 construct: Calbiochem; plasma IgG4 in anisotropy studies, myeloma-derived (cat. 400126) in batch/column studies; also called hIgG4
# T3 sequence (P01861 other isoform, or with tags, fused parts or gaps): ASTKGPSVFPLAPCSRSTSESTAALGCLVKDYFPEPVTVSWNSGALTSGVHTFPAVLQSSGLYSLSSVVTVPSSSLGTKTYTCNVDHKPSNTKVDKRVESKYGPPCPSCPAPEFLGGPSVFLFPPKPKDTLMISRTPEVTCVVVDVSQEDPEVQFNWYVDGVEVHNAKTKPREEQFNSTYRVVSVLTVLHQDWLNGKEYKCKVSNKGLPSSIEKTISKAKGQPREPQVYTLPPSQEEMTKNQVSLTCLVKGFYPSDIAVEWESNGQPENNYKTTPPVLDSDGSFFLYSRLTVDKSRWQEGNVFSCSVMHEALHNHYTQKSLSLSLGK
# Experimental: as §1
# [4] = molecular target: T4, human IgG3 (human, UniProt P01860-1 1-377); experiment: batch binding, immobilised ligand
# T4 construct: Calbiochem; plasma IgG3 in anisotropy studies, myeloma-derived (cat. 400124) in batch/column studies; also called hIgG3
# T4 sequence (P01860 other isoform, or with tags, fused parts or gaps): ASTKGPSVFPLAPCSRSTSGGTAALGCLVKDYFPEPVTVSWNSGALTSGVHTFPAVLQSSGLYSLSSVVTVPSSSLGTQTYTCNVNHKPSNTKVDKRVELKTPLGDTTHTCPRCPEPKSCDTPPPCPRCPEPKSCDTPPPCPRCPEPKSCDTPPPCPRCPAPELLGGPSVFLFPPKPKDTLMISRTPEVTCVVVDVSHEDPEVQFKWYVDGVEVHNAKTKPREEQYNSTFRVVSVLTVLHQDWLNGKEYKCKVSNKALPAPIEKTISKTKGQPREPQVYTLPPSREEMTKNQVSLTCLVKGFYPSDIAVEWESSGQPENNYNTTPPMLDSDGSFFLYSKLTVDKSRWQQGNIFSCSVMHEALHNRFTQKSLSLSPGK
# Experimental: (§2) IgG targets were diluted into 10 mM phosphate buffer containing 150 mM NaCl and 0.01% Tween 20, pH 7.2 (PBST) or 50 mM Tris buffer containing, 150 mM NaCl and 0.01% Tween-20, pH 7.5 (TBST). Batch (static) binding and elution studies were conducted in a 96-well assay filterplate (Millipore MultiScreen-HV, with 0.45 μm Durapore membrane, product no. MAHVN4510). The target was allowed to incubate with the resin for 1-1.5 hours with shaking at room temperature. Unbound target was collected by centrifugation of samples from the assay plate directly into a low-UV absorbing 96-well collection plate (Costar, product no. 3635 or Greiner, product no. 655801). The unbound target was then quantitated by reading the absorbance at 280 nm (normalized to 1 cm pathlength, 1.4 mg/ml A280 extinction coefficient) of the collection plate on a microplate spectrophotometer (Molecular Devices Corp., SPECTRAmax PLUS) against a buffer blank.
# (§3) The percentage bound target was determined by subtracting the mass determined as unbound from the corresponding condition's control values (control non-filtered added directly to the collection plate and/or the negative control). The assay plate was washed (3×) with 200 μl of binding buffer by vacuum filtration followed by addition of 100 μl of various elution conditions (e.g.: 0.1 M sodium bicarbonate buffer, pH 8.5 and/or 0.1 M sodium citrate buffer, pH 4.0). After a 30-60 minute incubation with shaking at room temperature, the eluted target was collected by centrifugation of the assay plate into another collection plate and quantitated in a similar manner. Percent elution of total load was then determined to characterize elution recovery efficiency under various conditions.
# [5] = molecular target: T1, human IgG1; experiment: batch binding, immobilised ligand
# Experimental: as §2, §3
# [6] = molecular target: T2, human IgG2; experiment: batch binding, immobilised ligand
# Experimental: as §2, §3
# [7] = molecular target: T3, human IgG4; experiment: batch binding, immobilised ligand
# Experimental: as §2, §3
# [8] = molecular target: T5, Human IgG Fc fragment isolated from plasma (human); experiment: fluorescence anisotropy; pH 8.0, 0.05 M Tris-HCl, 0.2 M NaCl
# T5 construct: domain: Fc fragment; also called human Fc; Fc protein
# Experimental: as §1
# [9] = molecular target: T6, human IgG (unfractionated, polyclonal); experiment: filterplate; 25 mg human IgG applied per ml resin
# T6 construct: also called hIgG; polyclonal human IgG
# Experimental: After incubation of the samples, with shaking, at room temperature for one hour, the supernatant liquid from each well, containing unbound IgG, was collected by centrifugation into the cognate well of a collection plate. The assay plate was washed three times with PBST (200 μl/wash) and bound IgG was eluted from the media samples by incubation for 30-60 minutes at room temperature in 100 μl Elution Buffer (100 mM CAPS, pH 11.5). Eluates were collected by centrifugation for analysis. Protein concentrations were determined from A₂₈₀ measurements and plotted as a function of mg human IgG bound per ml resin vs. mg human IgG applied per ml resin.
# These were subsequently tested in batch filterplate format for relative static capacity, human IgG subtype and species specificity as previously described. In addition, total dynamic capacities were determined for comparison. […] The static capacity (mg IgG bound per ml resin) was measured at the 2.5 mg/ml target concentration (25 mg human IgG applied per ml resin).
# [10] = molecular target: T1, human IgG1; experiment: fluorescence anisotropy; pH 5.7, 0 M NaCl
# Experimental: as §1
# [11] = molecular target: T1, human IgG1; experiment: fluorescence anisotropy; pH 7.4 PBS
# Experimental: as §1
# [12] = molecular target: T2, human IgG2; experiment: fluorescence anisotropy; pH 7.4 PBS
# Experimental: as §1
# [13] = molecular target: T3, human IgG4; experiment: fluorescence anisotropy; pH 7.4 PBS
# Experimental: as §1
# [14] = molecular target: T1, human IgG1; experiment: fluorescence anisotropy; pH 7.4 PBS, 15% ethylene glycol
# Experimental: as §1
# [15] = molecular target: T1, human IgG1; experiment: fluorescence anisotropy; pH 5.7, 0.1 M NaCl
# Experimental: as §1
# [16] = molecular target: T1, human IgG1; experiment: fluorescence anisotropy; pH 5.7, 0.15 M NaCl
# Experimental: as §1
# [17] = molecular target: T1, human IgG1; experiment: fluorescence anisotropy; pH 7.4 PBS (second value, unlabelled row)
# Experimental: as §1
# T1 sequence (P01857 other isoform, or with tags, fused parts or gaps): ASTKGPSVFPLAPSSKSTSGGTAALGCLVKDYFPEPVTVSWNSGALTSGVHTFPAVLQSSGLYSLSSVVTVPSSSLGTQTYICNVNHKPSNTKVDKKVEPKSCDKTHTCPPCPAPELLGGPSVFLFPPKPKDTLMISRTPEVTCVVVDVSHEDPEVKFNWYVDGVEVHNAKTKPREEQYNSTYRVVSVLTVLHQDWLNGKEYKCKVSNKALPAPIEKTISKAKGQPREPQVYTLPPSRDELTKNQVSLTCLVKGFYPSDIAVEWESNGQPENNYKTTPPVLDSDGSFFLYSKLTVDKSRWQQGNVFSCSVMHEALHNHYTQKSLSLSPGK
binder,measurement,setting,value
"Ac-GDDHMCVYTTWGELIWCDNHEPGPEGGGK-NH2 (disulfide 6-17 (inferred), Synthetic disulfide-cyclised peptide) [DX249]",Kd,[1],74 nM
same,Kd,[2],68 nM
same,Kd,[3],300 nM
same,Bound (% of Total Load),[4],0%
same,bdg % (of Total Load),[4],3%
same,Bound (% of Total Load),[5],88%
same,bdg % (of Total Load),[5],91%
same,Bound (% of Total Load),[6],78%
same,bdg % (of Total Load),[6],92%
same,Bound (% of Total Load),[7],61%
same,bdg % (of Total Load),[7],82%
same,Kd,[8],2500 nM
same,Static Cap.,[9],24 mg/mL
same,Kd,[10],74 nM
same,Kd,[11],1400 nM
same,Kd,[12],1100 nM
same,Kd,[13],1900 nM
same,Kd,[14],3600 nM
same,Kd,[15],970 nM
same,Kd,[16],840 nM
same,Kd,[17],2900 nM
